The results in this text go back to paper PMC4227782.

Bounds are passed on as bounds.

For the series, the target named is T1, MBNL1 (2-260) (UniProt Q9NR56).
T1 sequence: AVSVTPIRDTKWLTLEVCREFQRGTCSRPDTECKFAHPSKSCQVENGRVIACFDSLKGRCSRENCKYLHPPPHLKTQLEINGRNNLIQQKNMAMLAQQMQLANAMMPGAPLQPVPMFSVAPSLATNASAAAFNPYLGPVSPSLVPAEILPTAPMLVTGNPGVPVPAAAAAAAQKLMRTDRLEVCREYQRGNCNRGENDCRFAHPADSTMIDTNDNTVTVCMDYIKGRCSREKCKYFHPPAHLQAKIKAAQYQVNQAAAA
Briefly: EMSA. As to conditions: 5 mM Mg2+, 0.1 mg/ml heparin, 175 mM NaCl, 20 mM Tris pH 7.5, 1 mM BME, 10% glycerol, 5 mM MgCl2, 0.1 mg/ml heparin, 2 mg/ml BSA, 0.02% xylene cyanol, 0.05% bromophenol blue, 20 min at room …. For orientation: In EMSA bound probe runs differently from free probe, usually more slowly.

As usually defined, the Kd is the concentration at which binding is half-saturated. For CUGCUGCUGCUG [1-2'Ome(CUG)4], the Kd (1 2'-O-methyl, position only in Fig 1B) was 650 nM.

For CUGCUGCUGCUG [1Ψ(CUG)4], the Kd (1 pseudouridine replacing U, position only in Fig 1B) came to 1000 nM.

As for CUGCUGCUGCUG [2-2'Ome(CUG)4], under “2 2'-O-methyl, positions only in Fig 1B”, the Kd amounted to 890 nM.

As for CUGCUGCUGCUG [2Ψ(CUG)4], for the setting “2 pseudouridines replacing U, positions only in Fig 1B”, the Kd came out at 6000 nM.

For CUGCUGCUGCUG [4-2'Ome(CUG)4], the Kd (4 2'-O-methyl, positions only in Fig 1B) is 1000 nM.

On to CUGCUGCUGCUG [4Ψ(CUG)4], for which the Kd (Kd immeasurable, 4 pseudouridines replacing U) was over 5000 nM.

For the sequence CUGCUGCUGCUG [(CUG)4], the Kd was found to be 300 nM.
